Results as given in patent US20220008473A1 (CRISPR THERAPEUTICS, published 2022).

Target: T1, biotinylated recombinant human BCMA (ACROS Cat #BC7-H82F0) (human, UniProt Q02223 1-54, biotinylated (site not stated))
T1 construct: Bought reagent; also called CD269; B-cell maturation antigen
T1 sequence (looked up): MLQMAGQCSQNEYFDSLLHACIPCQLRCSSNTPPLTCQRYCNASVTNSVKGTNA
Experiment: flow cytometry of CAR T cells stained with biotinylated recombinant antigen

- binding result: binds
B1: anti-BCMA CAR comprising the amino acid sequence of SEQ ID NO: 86 (other)
chain: QVQLVQSGAELKKPGASVKVSCKASGNTLTNYVIHWVRQAPGQRLEWMGYILPYNDLTKYSQKFQGRVTITRDKSASTAYMELSSLRSEDTAVYYCTRWDWDGFFDPWGQGTTVTVSSGGGGSGGGGSGGGGSEIVMTQSPATLSVSPGERASISCRASQSLVHSNGNTHLHWYQQRPGQAPRLLIYSVSNRFSEVPARFSGSGSGTDFTLTISSVESEDFAVYYCSQTSHIPYTFGGGTKLEIKSAAAFVPVFLPAKPTTTPAPRPPTPAPTIASQPLSLRPEACRPAAGGAVHTRGLDFACDIYIWAPLAGTCGVLLLSLVITLYCNHRNRKRGRKKLLYIFKQPFMRPVQTTQEEDGCSCRFPEEEEGGCELRVKFSRSADAPAYQQGQNQLYNELNLGRREEYDVLDKRRGRDPEMGGKPRRKNPQEGLYNELQKDKMAEAYSEIGMKGERRRGKGHDGLYQGLSTATKDTYDALHMQALPPR
notes: Chimeric antigen receptor on engineered human T cells
